Experimental findings from the Human Domainome abundance scans (Beltran et al. 2025) are described below.

± gives the uncertainty stated by the source.

Sequences and labels used below:
B1: Tyrosine-protein kinase Lck, residues 63 to 120; numbered along this chain, P06239 (parent)
chain: DNLVIALHSYEPSHDGDLGFEKGEQLRILEQSGEWWKAQSLTTGQEGFIPFNFVAKAN

Variants of B1 are the subject of this series. Kind of series: abundance fitness (aPCA) (normalised: wild type 0, dead -1); higher = more abundant; growth selection in yeast, the domain comes from the species named. As to conditions: Homo sapiens.
On to S13M, for which the abundance fitness was -0.026 ± 0.13. Consider S13C, for which the abundance fitness was -0.047 ± 0.1. As for S13K, the abundance fitness came to 0.171 ± 0.11.

For S13F, the abundance fitness is -0.412 ± 0.11. Turning to S13I, the abundance fitness was -0.215 ± 0.14. As for S13H, the figure is -0.174 ± 0.15. Under S13Q stands -0.034 ± 0.12; under S13T, 0.047 ± 0.083. Consider S13E, for which the abundance fitness was -0.096 ± 0.095. As for S13G, the figure is -0.251 ± 0.07; as for K22P, -0.801 ± 0.18; as for K22L, -0.625 ± 0.09.

Regarding K22R, the abundance fitness is -0.252 ± 0.074. As for K22N, the abundance fitness was -0.777 ± 0.26. As to K22I, the abundance fitness is -0.526 ± 0.21.

K22W: the abundance fitness was -0.928 ± 0.13. On to K22G, for which the abundance fitness was -0.674 ± 0.086.

For K22H, the abundance fitness is -0.593 ± 0.2. Under K22M stands -0.514 ± 0.13; under K22Q, -0.371 ± 0.13; under K22C, -0.303 ± 0.12. As for K22A, the figure is -0.174 ± 0.086; as for K22T, -0.187 ± 0.11; as for K22F, -0.603 ± 0.17.

On to Y10M, for which the abundance fitness is -0.444 ± 0.15. Under Y10N stands -0.587 ± 0.19.

In the case of Y10V, the abundance fitness is -0.485 ± 0.1. As for Y10H, the figure is -0.087 ± 0.16; as for Y10L, -0.488 ± 0.092; as for Y10F, -0.241 ± 0.14. As for Y10T, the figure is -0.604 ± 0.12; as for Y10A, -0.671 ± 0.12; as for Y10G, -0.717 ± 0.086. Under Y10P stands -0.673 ± 0.14. As to Y10I, the abundance fitness was -0.619 ± 0.24. On to Y10R, for which the abundance fitness was -0.289 ± 0.079.

For the variant Y10W, the abundance fitness is -0.019 ± 0.09. Under Y10C stands -0.415 ± 0.12; under Y10D, -0.511 ± 0.14. With Y10S, the abundance fitness was -0.662 ± 0.098. As for Y10K, the figure is -0.113 ± 0.17. As to G23C, the abundance fitness was -0.829 ± 0.26. As for G23S, the figure is -0.635 ± 0.094; as for G23K, -0.792 ± 0.2. Consider G23L, for which the abundance fitness was -0.832 ± 0.12. Under G23D stands -0.477 ± 0.1. Regarding G23Q, the abundance fitness was -0.903 ± 0.2. G23M: the abundance fitness was -0.792 ± 0.16. For the variant G23V, the abundance fitness was -1.04 ± 0.12. Under G23P stands -1.01 ± 0.29; under G23T, -0.917 ± 0.23. As to G23W, the abundance fitness was -0.648 ± 0.13. Turning to G23F, the abundance fitness is -0.573 ± 0.18. Under G23I stands -0.79 ± 0.22.

G23Y: the abundance fitness was -0.655 ± 0.29. As for G23N, the figure is -0.066 ± 0.15; as for G23H, -0.397 ± 0.2; as for G23E, -0.823 ± 0.17. Under P12Y stands -0.525 ± 0.16; under P12S, -0.366 ± 0.085; under P12R, -0.705 ± 0.082. As for P12Q, the figure is -1 ± 0.23; as for P12V, -0.717 ± 0.11; as for P12H, -0.846 ± 0.3.

P12E: the abundance fitness was -0.755 ± 0.1.

With P12L, the abundance fitness was -0.913 ± 0.12.

As for P12N, the abundance fitness is -0.557 ± 0.22. As for P12I, the figure is -0.506 ± 0.16; as for P12F, -1.08 ± 0.21; as for P12K, -0.471 ± 0.12.

With P12C, the abundance fitness is -0.387 ± 0.12. For P12G, the abundance fitness is -0.497 ± 0.09. On to P12T, for which the abundance fitness was -0.529 ± 0.1. As to P12D, the abundance fitness is -0.439 ± 0.27. For L26S, the abundance fitness was -0.84 ± 0.16.

As for L26P, the abundance fitness is -0.909 ± 0.24.

L26E: the abundance fitness was -0.596 ± 0.19. Consider L26V, for which the abundance fitness is -0.781 ± 0.12. As for L26A, the abundance fitness is -0.987 ± 0.2. As for L26H, the abundance fitness is -0.728 ± 0.24. Under L26G stands -0.704 ± 0.091; under L26C, -1.28 ± 0.31; under L26K, -0.919 ± 0.3. Under L26M stands -0.126 ± 0.14. Turning to L26Y, the abundance fitness is -0.929 ± 0.26. On to L26R, for which the abundance fitness is -0.726 ± 0.1.

In the case of L26F, the abundance fitness is -0.28 ± 0.18.

For the variant L26I, the abundance fitness was -0.648 ± 0.3. As for L26W, the abundance fitness is -0.864 ± 0.15. Take L26N: the abundance fitness was -0.787 ± 0.22. For L26Q, the abundance fitness was -0.572 ± 0.22. Under D15G stands -0.196 ± 0.095. Under D15H stands -0.071 ± 0.13; under D15C, -0.196 ± 0.12. As to D15Q, the abundance fitness is -0.02 ± 0.14.

Consider D15M, for which the abundance fitness is -0.225 ± 0.12. Turning to D15F, the abundance fitness is -0.148 ± 0.18. For D15W, the abundance fitness was -0.461 ± 0.11.

On to D15Y, for which the abundance fitness was -0.071 ± 0.17. Turning to D15V, the abundance fitness is -0.273 ± 0.098. As for D15A, the figure is -0.046 ± 0.11; as for D15P, -0.075 ± 0.11. For the variant D15T, the abundance fitness was -0.124 ± 0.15. As to D15I, the abundance fitness was -0.225 ± 0.15. As for D15K, the figure is 0.111 ± 0.12; as for D15L, -0.106 ± 0.078; as for D15R, -0.053 ± 0.069. As for Q25V, the figure is -0.017 ± 0.073.

As for Q25K, the abundance fitness amounted to 0.09 ± 0.12.

For Q25Y, the abundance fitness is -0.047 ± 0.18. Turning to Q25E, the abundance fitness is -0.021 ± 0.11. In the case of Q25I, the abundance fitness is -0.181 ± 0.13. For Q25H, the abundance fitness is -0.143 ± 0.27. Turning to Q25S, the abundance fitness is -0.053 ± 0.088. As for Q25T, the figure is 0.078 ± 0.13.

Take Q25N: the abundance fitness was found to be 0.069 ± 0.21. For Q25M, the abundance fitness stood at 0.022 ± 0.13. Under Q25W stands -0.169 ± 0.1; under Q25D, -0.357 ± 0.14. Turning to Q25C, the abundance fitness was -0.096 ± 0.13. Turning to Q25A, the abundance fitness was -0.165 ± 0.089.

Consider Q25P, for which the abundance fitness is -0.276 ± 0.12. Consider H14D, for which the abundance fitness was -0.219 ± 0.14. Turning to H14S, the abundance fitness was -0.031 ± 0.088. Under H14L stands -0.267 ± 0.082; under H14N, 0.12 ± 0.14.

Turning to H14I, the abundance fitness was -0.118 ± 0.15. As for H14E, the figure is -0.051 ± 0.11; as for H14W, -0.328 ± 0.086. Turning to H14Y, the abundance fitness is -0.165 ± 0.1.

Consider H14G, for which the abundance fitness was -0.059 ± 0.072. Under H14Q stands -0.079 ± 0.11; under H14A, 0.027 ± 0.077; under H14K, 0.072 ± 0.11.

In the case of H14C, the abundance fitness was -0.033 ± 0.12. As for H14P, the abundance fitness was -0.793 ± 0.19. For the variant H14R, the abundance fitness was 0.039 ± 0.062. Turning to H14V, the abundance fitness is -0.104 ± 0.071. As for H14F, the figure is -0.187 ± 0.15; as for H8G, -0.295 ± 0.08; as for H8E, -0.096 ± 0.1. Take H8I: the abundance fitness is -0.262 ± 0.11. Under H8Q stands -0.086 ± 0.13; under H8D, 0.003 ± 0.13; under H8A, -0.067 ± 0.12. Under H8N stands -0.001 ± 0.14.

On to H8P, for which the abundance fitness is -0.79 ± 0.18. Under H8R stands 0.034 ± 0.074. As to H8V, the abundance fitness was -0.227 ± 0.085. Regarding H8L, the abundance fitness is -0.285 ± 0.083. Under H8K stands 0.285 ± 0.17; under H8C, -0.131 ± 0.11; under H8T, -0.012 ± 0.11. Under H8S stands -0.078 ± 0.091; under G16Y, -0.218 ± 0.18; under G16M, -0.259 ± 0.11.

Consider G16I, for which the abundance fitness was -0.322 ± 0.15. Under G16V stands -0.328 ± 0.081; under G16S, -0.174 ± 0.074. Under G16T stands -0.152 ± 0.11.

Turning to G16H, the abundance fitness is -0.114 ± 0.12.

G16C: the abundance fitness is -0.241 ± 0.097. As for G16P, the figure is -1.03 ± 0.23; as for G16E, -0.247 ± 0.1; as for G16F, -0.309 ± 0.14. As for G16K, the figure is -0.362 ± 0.13; as for G16A, -0.366 ± 0.09.
